# From article PMC4072508, “Genome-Wide Prediction and Validation of Peptides That Bind Human Prosurvival Bcl-2 Proteins” (PLoS Computational Biology, 2014)
# T1: Bfl-1, Q16548
# T1 chain: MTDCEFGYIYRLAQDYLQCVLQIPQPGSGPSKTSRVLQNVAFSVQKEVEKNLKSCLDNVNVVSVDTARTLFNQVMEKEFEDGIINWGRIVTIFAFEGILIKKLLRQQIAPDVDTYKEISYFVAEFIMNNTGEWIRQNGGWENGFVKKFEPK
# T2: Mcl-1, Q07820
# T2 chain: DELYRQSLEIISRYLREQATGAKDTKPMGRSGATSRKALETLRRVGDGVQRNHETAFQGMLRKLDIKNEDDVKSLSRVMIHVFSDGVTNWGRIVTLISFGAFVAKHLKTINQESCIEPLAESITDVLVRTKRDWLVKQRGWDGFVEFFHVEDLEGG
# Target: Bcl-xL, Q07817
# Sequence (Q07817 1-209): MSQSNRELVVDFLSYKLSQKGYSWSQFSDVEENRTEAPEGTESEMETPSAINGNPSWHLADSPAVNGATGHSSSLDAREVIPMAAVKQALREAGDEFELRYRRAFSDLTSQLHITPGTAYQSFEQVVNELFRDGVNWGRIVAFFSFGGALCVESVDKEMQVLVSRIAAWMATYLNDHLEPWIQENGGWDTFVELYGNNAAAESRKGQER
# Assay: peptide SPOT array, c-Myc-tagged receptor at 1 uM or 100 nM, anti-c-Myc-Cy3
row,SPOT signal as a fraction of Bim BH3's signal on the same receptor and array,Binder
1,0.1,LLDFFMVSILFSKLLDLLHKLQFVLT [PCNXL2]
2,0.08,WTLFVYTKGNDRMIGDDLVNSYHLLL [RBL1]
3,2.37,TAAAAYRGAHLRGRLRTVYNTFRAAA [XXXX]
4,1.14,KLALEQRCRELRARLRRLEETLPRRI [KIF19]
5,0.36,QASREAGAAALRNVAQRLFENYQTQS [CCDC68]
6,1.65,RLRQLGVAKKFGVLSDNFKGKRIVLV [PPAT]
7,0.09,SKEVAILCSFLLGLLDSCFNTQLLSI [MFSD11]
8,0.05,KIETTPESRYDAQIGDSVSLTCSTTG [VCAM1]
9,0.08,SQGKHGFTMAMNAFGDMTNEEFRQMM [CTSL2]
10,0.05,TSRINEVQVNLSLLLDDLLLPAQSTL [SPHKAP]
11,0.89,PALLVHWAKCLQKMGRGLNSSYDQQE [RGPD2]
12,1.01,WVKSIRICTPDGKLGDSCHPLTRKVP
13,1.11,ISSYMVLAPVFGYLLDRYNRKYLMCG [SPNS1]
14,0.74,QAGPVSSGLALRKLLDRVQLLNLLVT [CCDC57]
15,0.15,PKKKMTLSEIYQWILDNFPYYREAGS [FOXJ3]
16,0.02,GVMTQEVGQLDQDMGDDVYQQYRSLT [HUWE1]
17,1.07,WVKSIRICTPMGKLGDSCHPLTRKVP
18,0.07,FGEYSGISENDILVGDDFWIPETSFI [ROS1]
19,0.41,YFKLFRASGDMRTNGDNYLYEIQLSS [IGF2R]
20,1.3,PYLSKHRADRMRRLGDFLNQESFDLA [SMPD2]
21,1.22,TAGLRPGARLLRVCGQTLPSLRPEAA [SIPA1]
22,0.04,NNNMDVESRTMATMLDTLASRGLLDA [SEC16A]
23,0.22,MRSQLGKATALAIMGDKLWWADQVSE [LRP1]
24,0.19,EQWAREIGAQLRRMLDDLNAQYERRR [BBC3]
25,0.06,ELDEDDLEAELDALLDELLADEDSSY [CHMP5]

# Target: T1, Bfl-1, Q16548
# Assay: as above
row,SPOT signal as a fraction of Bim BH3's signal on the same receptor and array,Binder
1,0.07,LLDFFMVSILFSKLLDLLHKLQFVLT [PCNXL2]
2,0.05,WTLFVYTKGNDRMIGDDLVNSYHLLL [RBL1]
3,1.55,TAAAAYRGAHLRGRLRTVYNTFRAAA [XXXX]
4,1.04,KLALEQRCRELRARLRRLEETLPRRI [KIF19]
5,0.18,QASREAGAAALRNVAQRLFENYQTQS [CCDC68]
6,0.64,RLRQLGVAKKFGVLSDNFKGKRIVLV [PPAT]
7,0.04,SKEVAILCSFLLGLLDSCFNTQLLSI [MFSD11]
8,0.03,KIETTPESRYDAQIGDSVSLTCSTTG [VCAM1]
9,0.08,SQGKHGFTMAMNAFGDMTNEEFRQMM [CTSL2]
10,0.03,TSRINEVQVNLSLLLDDLLLPAQSTL [SPHKAP]
11,0.47,PALLVHWAKCLQKMGRGLNSSYDQQE [RGPD2]
12,0.47,WVKSIRICTPDGKLGDSCHPLTRKVP
13,0.78,ISSYMVLAPVFGYLLDRYNRKYLMCG [SPNS1]
14,0.34,QAGPVSSGLALRKLLDRVQLLNLLVT [CCDC57]
15,0.1,PKKKMTLSEIYQWILDNFPYYREAGS [FOXJ3]
16,0.01,GVMTQEVGQLDQDMGDDVYQQYRSLT [HUWE1]
17,0.56,WVKSIRICTPMGKLGDSCHPLTRKVP
18,0.04,FGEYSGISENDILVGDDFWIPETSFI [ROS1]
19,0.47,YFKLFRASGDMRTNGDNYLYEIQLSS [IGF2R]
20,0.69,PYLSKHRADRMRRLGDFLNQESFDLA [SMPD2]
21,0.8,TAGLRPGARLLRVCGQTLPSLRPEAA [SIPA1]
22,0.05,NNNMDVESRTMATMLDTLASRGLLDA [SEC16A]
23,0.14,MRSQLGKATALAIMGDKLWWADQVSE [LRP1]
24,0.09,EQWAREIGAQLRRMLDDLNAQYERRR [BBC3]
25,0.03,ELDEDDLEAELDALLDELLADEDSSY [CHMP5]

# Target: T2, Mcl-1, Q07820
# Assay: as above
row,SPOT signal as a fraction of Bim BH3's signal on the same receptor and array,Binder
1,0.08,LLDFFMVSILFSKLLDLLHKLQFVLT [PCNXL2]
2,0.07,WTLFVYTKGNDRMIGDDLVNSYHLLL [RBL1]
3,1.64,TAAAAYRGAHLRGRLRTVYNTFRAAA [XXXX]
4,0.72,KLALEQRCRELRARLRRLEETLPRRI [KIF19]
5,0.21,QASREAGAAALRNVAQRLFENYQTQS [CCDC68]
6,1.04,RLRQLGVAKKFGVLSDNFKGKRIVLV [PPAT]
7,0.05,SKEVAILCSFLLGLLDSCFNTQLLSI [MFSD11]
8,0.03,KIETTPESRYDAQIGDSVSLTCSTTG [VCAM1]
9,0.09,SQGKHGFTMAMNAFGDMTNEEFRQMM [CTSL2]
10,0.04,TSRINEVQVNLSLLLDDLLLPAQSTL [SPHKAP]
11,0.51,PALLVHWAKCLQKMGRGLNSSYDQQE [RGPD2]
12,0.75,WVKSIRICTPDGKLGDSCHPLTRKVP
13,0.73,ISSYMVLAPVFGYLLDRYNRKYLMCG [SPNS1]
14,0.42,QAGPVSSGLALRKLLDRVQLLNLLVT [CCDC57]
15,0.16,PKKKMTLSEIYQWILDNFPYYREAGS [FOXJ3]
16,0.01,GVMTQEVGQLDQDMGDDVYQQYRSLT [HUWE1]
17,0.81,WVKSIRICTPMGKLGDSCHPLTRKVP
18,0.04,FGEYSGISENDILVGDDFWIPETSFI [ROS1]
19,0.43,YFKLFRASGDMRTNGDNYLYEIQLSS [IGF2R]
20,0.71,PYLSKHRADRMRRLGDFLNQESFDLA [SMPD2]
21,0.91,TAGLRPGARLLRVCGQTLPSLRPEAA [SIPA1]
22,0.03,NNNMDVESRTMATMLDTLASRGLLDA [SEC16A]
23,0.28,MRSQLGKATALAIMGDKLWWADQVSE [LRP1]
24,0.11,EQWAREIGAQLRRMLDDLNAQYERRR [BBC3]
25,0.03,ELDEDDLEAELDALLDELLADEDSSY [CHMP5]
